Values of other authors as cited in patent publication US20130337579.

Target: CRP (cited studies) (Escherichia coli) (UniProt P0ACJ8)
Test: EMSA
Settings: CITED Fried 1984

Chain of CRP (cited studies) (Escherichia coli) (P0ACJ8 2-210): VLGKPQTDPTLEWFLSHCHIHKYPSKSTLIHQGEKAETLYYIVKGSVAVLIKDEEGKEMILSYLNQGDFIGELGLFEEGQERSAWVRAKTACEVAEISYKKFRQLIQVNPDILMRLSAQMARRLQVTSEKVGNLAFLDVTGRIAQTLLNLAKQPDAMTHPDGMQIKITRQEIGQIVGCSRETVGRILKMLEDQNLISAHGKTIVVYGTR

In the case of lac CRP oligo (Fried 1984), the Kd (200 nM cAMP) is given as 63 nM and the Kd (5 uM cAMP) is given as 0.84 nM.
